Positions count from the first letter of the chain named. Names and notes keep the numbering of the source. Blank lines part the entries; values can stand above or below the binder they belong to.
Target: T1, Human CD3eg linker (human)
T1 construct: single-chain construct; also called recombinant human CD3
T1 chain: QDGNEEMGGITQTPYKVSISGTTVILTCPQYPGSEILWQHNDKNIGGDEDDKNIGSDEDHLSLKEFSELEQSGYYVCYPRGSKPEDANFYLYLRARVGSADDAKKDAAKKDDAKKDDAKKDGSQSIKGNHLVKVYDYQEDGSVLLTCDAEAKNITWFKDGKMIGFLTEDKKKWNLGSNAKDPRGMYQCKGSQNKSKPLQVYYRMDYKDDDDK
Assay: SPR, vs unmutated H183/L072

B1: dBBDu183H V100cN/dBBDu072L (antibody, name in Kabat numbering, V domains shown)
VH: QVQLVESGGGLVQPGRSLRLSCAASGFTFSNAWMHWVRQAPGKGLEWVAQIKDKGNAYAAYYAPSVKGRFTISRDDSKNSIYLQMNSLKTEDTAVYYCHYVHYASASTNLPAFGVDAWGQGTTVTVSS
VL: DIVMTQSPLSLPVTPGEPASISCQASQELVHMNRNTYLHWYQQKPGQAPRLLIYKVSNRFPGVPDRFSGSGSGTDFTLKISRVEAEDVGVYYCAQGTSVPFTFGQGTKLEIK
fold change of affinity: 1 fold

B2: dBBDu183H V100iY/dBBDu072L (antibody, name in Kabat numbering, V domains shown)
VH: B1 VH with N109V, V115Y
VL: B1 VL
fold change of affinity: 3 fold

B4: dBBDu183H V100iK/dBBDu072L (antibody, name in Kabat numbering, V domains shown)
VH: B1 VH with N109V, V115K
VL: B1 VL
fold change of affinity: 2.4 fold

B5: dBBDu183H V100iT/dBBDu072L (antibody, name in Kabat numbering, V domains shown)
VH: B1 VH with N109V, V115T
VL: B1 VL
fold change of affinity: 1 fold

B6: dBBDu183H V100cR/dBBDu072L (antibody, name in Kabat numbering, V domains shown)
VH: B1 VH with N109R
VL: B1 VL
fold change of affinity: 1.5 fold

B8: dBBDu183H V100cY/dBBDu072L (antibody, name in Kabat numbering, V domains shown)
VH: B1 VH with N109Y
VL: B1 VL
fold change of affinity: 1.3 fold

B9: dBBDu183H V100iQ/dBBDu072L (antibody, name in Kabat numbering, V domains shown)
VH: B1 VH with N109V, V115Q
VL: B1 VL
fold change of affinity: 3.6 fold

B10: dBBDu183H V100cQ/dBBDu072L (antibody, name in Kabat numbering, V domains shown)
VH: B1 VH with N109Q
VL: B1 VL
fold change of affinity: 1.4 fold

B11: dBBDu183H V100cT/dBBDu072L (antibody, name in Kabat numbering, V domains shown)
VH: B1 VH with N109T
VL: B1 VL
fold change of affinity: 1 fold

B13: dBBDu183H V100cS/dBBDu072L (antibody, name in Kabat numbering, V domains shown)
VH: B1 VH with N109S
VL: B1 VL
fold change of affinity: 1.1 fold

B14: dBBDu183H V100iH/dBBDu072L (antibody, name in Kabat numbering, V domains shown)
VH: B1 VH with N109V, V115H
VL: B1 VL
fold change of affinity: 2.2 fold

B15: dBBDu183H Y94N/dBBDu072L (antibody, name in Kabat numbering, V domains shown)
VH: B1 VH with Y100N, N109V
VL: B1 VL
fold change of affinity: 0 fold

B21: dBBDu183H V100iG/dBBDu072L (antibody, name in Kabat numbering, V domains shown)
VH: B1 VH with N109V, V115G
VL: B1 VL
fold change of affinity: 1.8 fold

B24: dBBDu183H V100iS/dBBDu072L (antibody, name in Kabat numbering, V domains shown)
VH: B1 VH with N109V, V115S
VL: B1 VL
fold change of affinity: 1.9 fold

B28: dBBDu183H Y94Q/dBBDu072L (antibody, name in Kabat numbering, V domains shown)
VH: B1 VH with Y100Q, N109V
VL: B1 VL
fold change of affinity: 0.4 fold

B29: dBBDu183H V100iW/dBBDu072L (antibody, name in Kabat numbering, V domains shown)
VH: B1 VH with N109V, V115W
VL: B1 VL
fold change of affinity: 4.9 fold

B30: dBBDu183H Y94H/dBBDu072L (antibody, name in Kabat numbering, V domains shown)
VH: B1 VH with Y100H, N109V
VL: B1 VL
fold change of affinity: 0.5 fold

B32: dBBDu183H Y94D/dBBDu072L (antibody, name in Kabat numbering, V domains shown)
VH: B1 VH with Y100D, N109V
VL: B1 VL
fold change of affinity: 0 fold

B33: dBBDu183H Y94E/dBBDu072L (antibody, name in Kabat numbering, V domains shown)
VH: B1 VH with Y100E, N109V
VL: B1 VL
fold change of affinity: 0 fold

B35: dBBDu183H V100cW/dBBDu072L (antibody, name in Kabat numbering, V domains shown)
VH: B1 VH with N109W
VL: B1 VL
fold change of affinity: 1.5 fold

B36: dBBDu183H Y94G/dBBDu072L (antibody, name in Kabat numbering, V domains shown)
VH: B1 VH with Y100G, N109V
VL: B1 VL
fold change of affinity: 1.1 fold

B37: dBBDu183H Y94K/dBBDu072L (antibody, name in Kabat numbering, V domains shown)
VH: B1 VH with Y100K, N109V
VL: B1 VL
fold change of affinity: 0 fold

B38: dBBDu183H V100iF/dBBDu072L (antibody, name in Kabat numbering, V domains shown)
VH: B1 VH with N109V, V115F
VL: B1 VL
fold change of affinity: 3.2 fold

B39: dBBDu183H V100iN/dBBDu072L (antibody, name in Kabat numbering, V domains shown)
VH: B1 VH with N109V, V115N
VL: B1 VL
fold change of affinity: 5 fold

B40: dBBDu183H Y94F/dBBDu072L (antibody, name in Kabat numbering, V domains shown)
VH: B1 VH with Y100F, N109V
VL: B1 VL
fold change of affinity: 0.4 fold

B42: dBBDu183H V100iD/dBBDu072L (antibody, name in Kabat numbering, V domains shown)
VH: B1 VH with N109V, V115D
VL: B1 VL
fold change of affinity: 2.4 fold

B43: dBBDu183H V100iE/dBBDu072L (antibody, name in Kabat numbering, V domains shown)
VH: B1 VH with N109V, V115E
VL: B1 VL
fold change of affinity: 1.4 fold

B44: dBBDu183H V100iR/dBBDu072L (antibody, name in Kabat numbering, V domains shown)
VH: B1 VH with N109V, V115R
VL: B1 VL
fold change of affinity: 4 fold

Next, values leading:

fold change of affinity: 0 fold
B3: dBBDu183H Y97G/dBBDu072L (antibody, name in Kabat numbering, V domains shown)
VH: B1 VH with Y103G, N109V
VL: B1 VL

fold change of affinity: 0 fold
B7: dBBDu183H Y97S/dBBDu072L (antibody, name in Kabat numbering, V domains shown)
VH: B1 VH with Y103S, N109V
VL: B1 VL

fold change of affinity: 0 fold
B12: dBBDu183H Y97N/dBBDu072L (antibody, name in Kabat numbering, V domains shown)
VH: B1 VH with Y103N, N109V
VL: B1 VL

fold change of affinity: 0 fold
B16: dBBDu183H Y94S/dBBDu072L (antibody, name in Kabat numbering, V domains shown)
VH: B1 VH with Y100S, N109V
VL: B1 VL

fold change of affinity: 0 fold
B17: dBBDu183H Y97E/dBBDu072L (antibody, name in Kabat numbering, V domains shown)
VH: B1 VH with Y103E, N109V
VL: B1 VL

fold change of affinity: 0 fold
B18: dBBDu183H Y97T/dBBDu072L (antibody, name in Kabat numbering, V domains shown)
VH: B1 VH with Y103T, N109V
VL: B1 VL

fold change of affinity: 0 fold
B19: dBBDu183H Y97F/dBBDu072L (antibody, name in Kabat numbering, V domains shown)
VH: B1 VH with Y103F, N109V
VL: B1 VL

fold change of affinity: 2.6 fold
B20: dBBDu183H Y94V/dBBDu072L (antibody, name in Kabat numbering, V domains shown)
VH: B1 VH with Y100V, N109V
VL: B1 VL

fold change of affinity: 0 fold
B22: dBBDu183H Y97H/dBBDu072L (antibody, name in Kabat numbering, V domains shown)
VH: B1 VH with Y103H, N109V
VL: B1 VL

fold change of affinity: 0.3 fold
B23: dBBDu183H Y94T/dBBDu072L (antibody, name in Kabat numbering, V domains shown)
VH: B1 VH with Y100T, N109V
VL: B1 VL

fold change of affinity: 0.4 fold
B25: dBBDu183H Y94W/dBBDu072L (antibody, name in Kabat numbering, V domains shown)
VH: B1 VH with Y100W, N109V
VL: B1 VL

fold change of affinity: 0 fold
B26: dBBDu183H Y97R/dBBDu072L (antibody, name in Kabat numbering, V domains shown)
VH: B1 VH with Y103R, N109V
VL: B1 VL

fold change of affinity: 0 fold
B27: dBBDu183H Y97K/dBBDu072L (antibody, name in Kabat numbering, V domains shown)
VH: B1 VH with Y103K, N109V
VL: B1 VL

fold change of affinity: 0.3 fold
B31: dBBDu183H Y94R/dBBDu072L (antibody, name in Kabat numbering, V domains shown)
VH: B1 VH with Y100R, N109V
VL: B1 VL

fold change of affinity: 0 fold
B34: dBBDu183H Y97Q/dBBDu072L (antibody, name in Kabat numbering, V domains shown)
VH: B1 VH with Y103Q, N109V
VL: B1 VL

fold change of affinity: 0 fold
B41: dBBDu183H Y97V/dBBDu072L (antibody, name in Kabat numbering, V domains shown)
VH: B1 VH with Y103V, N109V
VL: B1 VL

fold change of affinity: 0 fold
B45: dBBDu183H Y97D/dBBDu072L (antibody, name in Kabat numbering, V domains shown)
VH: B1 VH with Y103D, N109V
VL: B1 VL
